Numbering of substitutions follows the chain as printed.
B1: Mal5C*pG (dsDNA)
DNA 1: CAGGCAGATGCGCAGCACCAAGCAGAGAGGCCCGGTGCAGGATCCCAGGCCCGAACCAGGCCCGGCTCAGTGGAGCCGGAAGGGGCAGGC
DNA 2: GCCTGCCCCTTCCGGCTCCACTGAGCCGGGCCTGGTTCGGGCCTGGGATCCTGCACCGGGCCTCTCTGCTTGGTGCTGCGCATCTGCCTG
modifications: 5-methyl-C at all CpGs, both strands (M.SssI); top strand C11, C33, C52, C63, C77
B2: Mal4C*pG (dsDNA)
DNA 1: B1 DNA 1 with C33G, G53C, A54G, C63A, A74C, C77T
DNA 2: B1 DNA 2 with G14A, T17G, G28T, T37C, C38G, G58C
modifications: 5-methyl-C at all CpGs, both strands (M.SssI); top strand C11, C32, C53, C74

Experiments:
His10-MBD2 [1] = target: T1, His10-MBD2 (UniProt Q9UBB5 151-411); test: QCM; 500 nM DNA; threshold MBD2 density ~88 ng/cm2; up to 61% of bound DNA irreversible; BB: 50 mM Tris, 350 mM NaCl, 0.1% Triton X-100 (pH and temperature of BB not stated); 500 nM DNA, 30 min, QCM 5th overtone; His10MBD2 loaded at 1 uM in IB (50 mM Tris pH 7.2, 300 mM NaCl, 0.1% beta-mercaptoethanol); details: protein: recombinant; tags: N-terminal His10; blunt
T1 sequence (Q9UBB5 151-411): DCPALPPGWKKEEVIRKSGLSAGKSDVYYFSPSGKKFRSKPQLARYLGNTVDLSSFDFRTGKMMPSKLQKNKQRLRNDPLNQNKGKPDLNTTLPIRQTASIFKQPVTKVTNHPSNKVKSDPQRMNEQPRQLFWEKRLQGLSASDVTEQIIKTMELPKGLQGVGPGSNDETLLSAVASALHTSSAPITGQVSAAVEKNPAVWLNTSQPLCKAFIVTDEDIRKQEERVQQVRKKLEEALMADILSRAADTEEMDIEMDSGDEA

His10-MBD2 [2] = target: T1, His10-MBD2; test: QCM; 500 nM DNA; same trend as Mal5C*pG and Mal3C*pG; plateau between them; BB: 50 mM Tris, 350 mM NaCl, 0.1% Triton X-100 (pH and temperature of BB not stated); 500 nM DNA, 30 min, QCM 5th overtone; His10MBD2 loaded at 1 uM in IB (50 mM Tris pH 7.2, 300 mM NaCl, 0.1% beta-mercaptoethanol); details: protein: recombinant; tags: N-terminal His10; blunt

Row | Binder | binding result (His10-MBD2 [1]) | binding result (His10-MBD2 [2])
1 | B1 | binds | 
2 | B2 |  | binds
